Experimental data: patent publication US20140031283A1, “ANTICANCER FUSION PROTEIN” (ADAMED SP. Z O.O., priority 2011, published 2014)

What was measured:
[1] = tested on: A549; test: MTT cytotoxicity test, A549 (human lung cancer); format: cell-based; details: for A549 IC50: continuous incubation over 72 h, test MTT; for A549 mean (IC50): Table 4, mean/SD part
Description: (§1) MTT assay is a colorimetric assay used to measure proliferation, viability and cytotoxicity of cells. It consists in decomposition of a yellow tetrazolium salt MTT (4,5-dimethyl-2-thiazolyl)-2,5-diphenyltetrazolium bromide) to the water-insoluble purple dye formazan by mitochondrial enzyme succinate-tetrazolium reductase 1. MTT reduction occurs only in living cells. Data analysis consists in determining IC50 concentration of the protein (in ng/ml), at which the 50% reduction in the number of cells occurs in the population treated compared to control cells. Results were analyzed using GraphPad Prism 5.0 software. The test was performed according to the literature descriptions (Cells, J E, (1998). Cell Biology, a Laboratory Handbook, second edition, Academic Press, San Diego; Yang, Y., Koh, L W, Tsai, J H., (2004); Involvement of viral and chemical factors with oral cancer in Taiwan, Jpn J Clin Oncol, 34 (4), 176-183). Cell culture medium was diluted to a defined density (10^4-10^5 cells per 100 μl). Then 100 μl of appropriately diluted cell suspension was applied to a 96-well plate in triplicates. Thus prepared cells were incubated for 24 h at 37° C. in 5% or 10% CO2, depending on the medium used, and then to the cells (in 100 μl of medium) further 100 μl of the medium containing various concentrations of tested proteins were added. In the case of combination hTRAIL114-281 and p21WAF effector protein, 100 μl of the medium containing mixture of hTRAIL114-281 and p21WAF effector protein in molar ratio 1:1 was added. After incubation of the cells with tested proteins over the period of next 72 hours, which is equivalent to 3-4 times of cell division, the medium with the test protein was added with […] of MTT working solution [5 mg/ml], and incubation was continued for 3 h at 37° C. in 5% CO2. Then the medium with MTT solution was removed, and formazan crystals were dissolved by adding 100 μl of DMSO. After stirring, the absorbance was measured at 570 nm (reference filter 690 nm).
(§2) The results of in vitro cytotoxicity tests are summarized as IC50 values (ng/ml), which corresponds to the protein concentration at which the cytotoxic effect of fusion proteins is observed at the level of 50% with respect to control cells treated only with solvent. Each experiment represents the average value of at least two independent experiments performed in triplicates. As a criterion of lack of activity of protein preparations the IC50 limit of 2000 ng/ml was adopted.

[2] = tested on: MES-SA; test: MTT cytotoxicity test, MES-SA (human uterine sarcoma); format: cell-based; details: for MES-SA IC50: continuous incubation over 72 h, test MTT; for MES-SA mean (IC50): Table 4, mean/SD part
Description: as §1, §2

[3] = tested on: MES-SA/Dx5; test: MTT cytotoxicity test, MES-SA/Dx5 (multidrug-resistant human uterine sarcoma); format: cell-based; details: for MES-SA/Dx5 IC50: continuous incubation over 72 h, test MTT; for MES-SA/Dx5 mean (IC50): Table 4, mean/SD part
Description: as §1, §2
Cells selected for this test included tumor cell lines that are naturally resistant to TRAIL protein (the criterion of natural resistance to TRAIL: IC50 for TRAIL protein >2000), as well as tumor cell lines sensitive to TRAIL protein and resistant to doxorubicin line MES-SA/DX5 as a cancer line resistant to conventional anticancer medicaments.

[4] = tested on: SK-MES-1; test: MTT cytotoxicity test, SK-MES-1 (human lung cancer); format: cell-based; details: for SK-MES-1 IC50: continuous incubation over 72 h, test MTT; for SK-MES-1 mean (IC50): Table 4, mean/SD part
Description: as §1, §2

[5] = tested on: MCF10A; test: MTT cytotoxicity test, MCF10A (mammary epithelial cells); format: cell-based; details: for MCF10A IC50: continuous incubation over 72 h, test MTT; for MCF10A mean (IC50): Table 4, mean/SD part
Description: as §1, §2

[6] = tested on: HCT-116; details: for HCT116 IC50: continuous incubation over 72 h, test MTT; for HCT116 mean (IC50): Table 4, mean/SD part
[7] = tested on: TRAIL sensitive cell lines; test: in vitro cytotoxicity tests, TRAIL sensitive cell lines; format: cell-based; details: continuous incubation over 72 h, test MTT; versus rhTRAIL 95-281 (cell line not given)
Description: as §1, with “nm). […]” for “nm).”

HCT116 IC50 [6] | HCT116 mean (IC50) [6] | Molecule | A549 IC50 [1] | MES-SA IC50 [2] | MES-SA/Dx5 IC50 [3] | SK-MES-1 IC50 [4] | MCF10A IC50 [5] | A549 mean (IC50) [1] | MES-SA mean (IC50) [2] | MES-SA/Dx5 mean (IC50) [3] | SK-MES-1 mean (IC50) [4] | MCF10A mean (IC50) [5] | IC50 [7]
– | 0.6035 µg/mL | Ex. 15: fusion protein: 15-amino acid fragment of PH domain of TCL1 protein with antennapedia sequence at C-terminus of TRAIL121-281, MMP and uPA sites (protein, synthesized, a fusion protein comprising: a fragment of TRAIL protein, a fragment of PH domain of TCL1 protein - acting as Akt coactivator, cleavage sites recognized by uPA and MMP, an antennapedia transporting domain and a glycine-cysteine linker.) RVAAHITGTRGRSNTLSSPNSKNEKALGRKINSWESSRSGHSFLSNLHLRNGELVIHEKGFYYIYSQTYFRFQEEIKENTKNDKQMVQYIYKYTSYPDPILLMKSARNSCWSKDAEYGLYSIYQGGIFELKENDRIFVSVTNEHLIDMDHEASFFGAFLVGGSPLGLAGRVVRDRQIKIWFQNRRMKWKKAVTDHPDRLWAWEKF | – | – | – | – | – | 1 µg/mL | 0.123 µg/mL | 0.3289 µg/mL | 0.0784 µg/mL | 1 µg/mL | –
– | 0.01585 µg/mL | Ex. 16: fusion protein: hexapeptide inhibitor of E2F with antennapedia sequence at N-terminus of TRAIL121-281, uPA and MMP sites (protein, synthesized, a fusion protein comprising: a fragment of TRAIL protein, a peptide inhibitor of E2F, cleavage sites recognized by urokinase uPA and metalloprotease MMP and an antennapedia transporting domain.) FWLRFTKPRRPYRVVRPLGLAGRVAAHITGTRGRSNTLSSPNSKNEKALGRKINSWESSRSGHSFLSNLHLRNGELVIHEKGFYYIYSQTYFRFQEEIKENTKNDKQMVQYIYKYTSYPDPILLMKSARNSCWSKDAEYGLYSIYQGGIFELKENDRIFVSVTNEHLIDMDHEASFFGAFLVG | – | – | – | – | – | 0.04285 µg/mL | 0.00846 µg/mL | 0.001421 µg/mL | 0.003045 µg/mL | 0.09228 µg/mL | –
0.08429 µg/mL | – | Ex. 11: fusion protein: 18-amino acid peptide DD2 from DOC-2/DAB2 with 7 Arg transporting domain at C-terminus of TRAIL95-281, MMP and uPA sites (protein, synthesized, a fusion protein comprising: a fragment of TRAIL protein, a fragment of peptide DD2 derived from DOC-2/DAB2, cleavage sites recognized by uPA and MMP, an arginine transporting domain and a cysteine-alanine-glycine steric linker., fusion protein: 18-amino acid peptide DD2 from DOC-2/DAB2 with 7 Arg transporting domain at C-terminus of TRAIL95-281, MMP and uPA sites) TSEETISTVQEKQQNISPLVRERGPQRVAAHITGTRGRSNTLSSPNSKNEKALGRKINSWESSRSGHSFLSNLHLRNGELVIHEKGFYYIYSQTYFRFQEEIKENTKNDKQMVQYIYKYTSYPDPILLMKSARNSCWSKDAEYGLYSIYQGGIFELKENDRIFVSVTNEHLIDMDHEASFFGAFLVGCAACAAACGGGPLGLAGRVVRRRRRRRRGGGFQLRQPPLVPSRKGE | 0.257 µg/mL | 0.1044 µg/mL | 0.00885 µg/mL | 0.03348 µg/mL | 0.1333 µg/mL | – | – | – | – | – | 0.063 µg/mL

Second part, the molecule before the results:

Molecule | HCT116 IC50 [6] | HCT116 mean (IC50) [6] | A549 IC50 [1] | MES-SA IC50 [2] | MES-SA/Dx5 IC50 [3] | SK-MES-1 IC50 [4] | MCF10A IC50 [5] | A549 mean (IC50) [1] | MES-SA mean (IC50) [2] | MES-SA/Dx5 mean (IC50) [3] | SK-MES-1 mean (IC50) [4] | MCF10A mean (IC50) [5] | IC50 [7]
Ex. 4: fusion protein: 34-amino acid fragment of human fetoprotein at C-terminus of TRAIL121-281, MMP and uPA cleavage sites (protein, synthesized, a fusion protein comprising: a fragment of TRAIL protein, a fragment of human fetoprotein and cleavage sites recognized by uPA and MMP., fusion protein: 34-amino acid fragment of human fetoprotein at C-terminus of TRAIL121-281, MMP and uPA cleavage sites) RVAAHITGTRGRSNTLSSPNSKNEKALGRKINSWESSRSGHSFLSNLHLRNGELVIHEKGFYYIYSQTYFRFQEEIKENTKNDKQMVQYIYKYTSYPDPILLMKSARNSCWSKDAEYGLYSIYQGGIFELKENDRIFVSVTNEHLIDMDHEASFFGAFLVGPLGLAGRVVRLSEDKLLACGEGAADIIIGHLCIRHEMTPVNPG | 0.03225 µg/mL | – | >2 µg/mL | 0.2053 µg/mL | 0.01136 µg/mL | 0.01011 µg/mL | >2 µg/mL | – | – | – | – | – | –
Ex. 5: fusion protein: 34-amino acid fragment of human fetoprotein at N-terminus of TRAIL95-281, uPA and MMP cleavage sites (protein, synthesized, a fusion protein comprising: a fragment of TRAIL protein, a fragment of human fetoprotein and cleavage sites recognized by uPA and MMP., fusion protein: 34-amino acid fragment of human fetoprotein at N-terminus of TRAIL95-281, uPA and MMP cleavage sites) LSEDKLLACGEGAADIIIGHLCIRHEMTPVNPGRVVRPLGLAGTSEETISTVQEKQQNISPLVRERGPQRVAAHITGTRGRSNTLSSPNSKNEKALGRKINSWESSRSGHSFLSNLHLRNGELVIHEKGFYYIYSQTYFRFQEEIKENTKNDKQMVQYIYKYTSYPDPILLMKSARNSCWSKDAEYGLYSIYQGGIFELKENDRIFVSVTNEHLIDMDHEASFFGAFLVG | – | 0.1798 µg/mL | – | – | – | – | – | 3 µg/mL | 0.095 µg/mL | 0.01116 µg/mL | 0.07965 µg/mL | 8.949 µg/mL | –
Ex. 7: fusion protein: 8-amino acid fragment of human fetoprotein at C-terminus of TRAIL95-281, cysteine-alanine linker, MMP and uPA cleavage sites (protein, synthesized, a fusion protein comprising: a fragment of TRAIL protein, a fragment of human fetoprotein, cleavage sites recognized by uPA and MMP and a flexible cysteine - alanine linker., fusion protein: 8-amino acid fragment of human fetoprotein at C-terminus of TRAIL95-281, cysteine-alanine linker, MMP and uPA cleavage sites) TSEETISTVQEKQQNISPLVRERGPQRVAAHITGTRGRSNTLSSPNSKNEKALGRKINSWESSRSGHSFLSNLHLRNGELVIHEKGFYYIYSQTYFRFQEEIKENTKNDKQMVQYIYKYTSYPDPILLMKSARNSCWSKDAEYGLYSIYQGGIFELKENDRIFVSVTNEHLIDMDHEASFFGAFLVGCAACAAACPLGLAGRVVREMTPVNPG | 0.0635 µg/mL | – | >2 µg/mL | >2 µg/mL | 0.02211 µg/mL | 0.0366 µg/mL | >2 µg/mL | – | – | – | – | – | 0.105 µg/mL
